Measured values from paper doi:10.1101/188995 (bioRxiv, 2018).

Molecular target: the molecule itself
Experiment: negative-stain transmission electron microscopy

B1: recombinant B. subtilis TasA(28-261), fibre-forming (natural protein, B. subtilis NCIB3610, UniProt P54507 28-261, looked up)
chain: AFNDIKSKDATFASGTLDLSAKENSASVNLSNLKPGDKLTKDFQFENNGSLAIKEVLMALNYGDFKANGGSNTSPEDFLSQFEVTLLTVGKEGGNGYPKNIILDDANLKDLYLMSAKNDAAAAEKIKKQIDPKFLNASGKVNVATIDGKTAPEYDGVPKTPTDFDQVQMEIQFKDDKTKDEKGLMVQNKYQGNSIKLQFSFEATQWNGLTIKKDHTDKDGYVKENEKAHSEDKN
  binding result: binds
